Measurements as given in PMC8526979, “The predicted stem-loop structure in the 3′-end of the human norovirus antigenomic sequence is required for its genomic RNA synthesis by its RdRp” (The Journal of Biological Chemistry, 2021).

How the values were obtained:
[1] = system: His-RdRp (NS7, RNA-dependent RNA polymerase) (Human norovirus GII.P3_GII.3 U201 strain); assay: competition; details: 50 mM Tris-HCl pH 7.4, 1.7% glycerol, 5 mM beta-mercaptoethanol, 0.5 ug/ul yeast RNA, 30 C 10 min, 20 ul; native PAGE at 4 C
[2] = target: T1, HuNV RdRp (His-RdRp; GII.P3 RdRp) (Norwalk-like virus, UniProt Q8JXI4); assay: RNA synthesis, dsRNA product after S1 nuclease, native PAGE with SYBR Green II; type: biochemical
T1 construct: mature NS7 RdRp from ORF1 genome polyprotein, cDNA nt 3581-5113; N-terminal His6 tag (pET28b), E. coli ArcticExpress (DE3); 57 kDa by SDS-PAGE

31AS RNA
binding signal (% complex remaining) [1]: 47.3

100AS RNA
binding signal (% complex remaining) [1]: 13.5

C[C@@]1(O)[C@H](O)[C@@H](COP(=O)(O)OP(=O)(O)OP(=O)(O)O)O[C@H]1n1ccc(N)nc1=O [2′CM-CTP, 2′-C-methylcytidine triphosphate]
IC50 [2]: 57 ± 20 µM
